Molecular target: T1, ERα (Homo sapiens, UniProt P03372)
T1 construct: expressed in transfected cells; host or cells: CV-1 (African green monkey kidney)
T1 sequence (P03372 1-595): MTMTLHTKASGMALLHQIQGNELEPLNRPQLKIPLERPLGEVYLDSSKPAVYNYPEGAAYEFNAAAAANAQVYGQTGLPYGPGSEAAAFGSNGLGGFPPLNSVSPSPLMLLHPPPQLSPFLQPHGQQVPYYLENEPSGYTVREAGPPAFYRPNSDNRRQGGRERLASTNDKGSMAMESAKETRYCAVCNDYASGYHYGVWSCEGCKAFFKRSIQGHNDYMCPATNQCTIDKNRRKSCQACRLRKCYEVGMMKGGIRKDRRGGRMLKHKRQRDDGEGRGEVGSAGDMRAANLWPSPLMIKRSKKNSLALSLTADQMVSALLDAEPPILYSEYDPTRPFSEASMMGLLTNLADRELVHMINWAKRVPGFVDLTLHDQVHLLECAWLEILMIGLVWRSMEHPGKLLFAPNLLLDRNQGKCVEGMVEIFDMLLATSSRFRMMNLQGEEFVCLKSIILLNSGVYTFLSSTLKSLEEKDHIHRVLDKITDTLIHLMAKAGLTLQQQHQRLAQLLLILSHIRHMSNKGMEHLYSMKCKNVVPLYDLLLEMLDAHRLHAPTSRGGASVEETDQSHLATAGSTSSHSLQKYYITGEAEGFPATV
Test: Reporter gene assay, ERRγ3 or ERRγ2 coexisted with ERα in CV-1 cells
Assay type: cell-based
Conditions: for enhancement of the transcriptional activation function of ERα: absence of 4-hydroxytamoxifen
Protocol: The reporter gene assay was performed using CV-1 cells (African green monkey kidney-derived cell line) as hosts. Host cells were transfected with luciferase reporter plasmids and expression plasmids for ERRγ3, ERRγ2, or both. They were then exposed to 4-hydroxytamoxifen at different concentrations (0, 10^−10 to −10^−5 M) for 24 hours, whereupon luciferase activity within the cells was measured.
Transfection was performed as follows: CV-1 cells were suspended at 2×10^5 cells/2.5 ml in DMEM medium supplemented with 10% fetal bovine serum, 2000 U/l of penicillin G, and 100 mg/l streptomycin. These cells were seeded to a 6-well plate at 2.5 ml/well, and cultured for 18 to 24 hours in a CO2 incubator at 37° C. in the presence of 5% CO2. 1 μg of each of the transcription factor expression plasmid, the luciferase reporter plasmid, and another luciferase reporter plasmid for normalizing the measured value (pRL-TK), were dissolved in Opti-MEM (Gibco BRL) to total of 150 μl. 7 μl of the cell transfection reagent LipofectAMINE 2000 (Gibco BRL) was diluted in 143 μl of Opti-MEM, and this was added to the mixture drop by drop while stirring. The mixture was incubated for 20 minutes.
The LipofectAMINE-DNA mixture was diluted in 1.5 ml of Opti-MEM, and added to cells that had been twice washed with 1 ml of PBS(−). The cells were cultured for four hours. The transfection reagent was removed from the culture, and 200 μl of trypsin/EDTA was added to the cells, which were then incubated at 37° C. for five minutes. […] of DMEM was added to suspend the cells, which were transferred to a centrifuge tube, and centrifuged for three minutes at 1000 rpm. After centrifugation, the cells were resuspended in DMEM to a concentration of 1.6×10^4 cells/100 μl, and 100 μl samples were seeded to a 96-well plate. When evaluating agents, a two-fold concentrated solution was made by pre-diluting a 1000 times concentrated agent DMSO solution with culture medium. 50 μl of the solution was mixed with 50 μl of a cell suspension at 1.6×10^4 cells/50 μl, and the culture was incubated in a CO2 incubator at 37° C. and 5% CO2 for 24 hours.
Luciferase activity was measured using the Dual-Luciferase™ Reporter Assay System (Promega). The culture supernatant was removed from each well of the 96-well plate and washed once with 100 μl of PBS(−). 20 μl of ×1 PLB (Passive Lysis Buffer) was added, and the mixture was incubated at room temperature for 15 minutes, and then stored at −20° C. in the freezer until use. […] The protocol for measurement was as follows: 50 μl of Luciferase Assay Reagent II was added to each well, stirred for 0.3 seconds and measured for one second. […] of Stop&Glo™ Reagent was then added, stirred for 0.3 seconds, and measured for one second. […] Average values and standard errors were calculated from triplicate samples.
To confirm whether or not ERRγ3 can regulate the transcription-controlling function of nuclear receptors other than ERRγ2, ERRγ3's function of regulating the transcription-controlling activity of nuclear receptors related to ERRγ (ERα, ERβ, and TR) was evaluated using a reporter gene assay. […] In addition to 4-hydroxytamoxifen, the cells were also contacted with 10^−5 M of (R)-estradiol in experiments related to ERα and ERβ, and 10^−5 M of thyroxine in the experiment related to TR.
The transfected cells were contacted with varying concentrations of 4-hydroxytamoxifen in the absence of […] or presence of 10^−7 M of β-estradiol.

Molecule	effect of 4-hydroxytamoxifen on the function of ERRγ3 on ERα (in the presence of the ligand, 10^−5 M (R)-estradiol, CV-1 cells)	effect of 4-hydroxytamoxifen on the transcription enhancing function of ERRγ3 on ERα (β-estradiol absent or 10^−7 M, 4-hydroxytamoxifen at high concentrations, FIGS. 19-20)	function enhancement of the transcription-controlling activity of ERα (ERRγ3 with ERα, 10^−5 M (R)-estradiol, CV-1 cells, FIG. 16)	enhancement of the transcriptional activation function of ERα (absence of β-estradiol, FIG. 19)	enhancement of the transcriptional activation function of ERα (presence of 10^−7 M β-estradiol, FIG. 20)
4-hydroxytamoxifen [reference compound]	increased dependent on the concentration of 4-hydroxytamoxifen	reduced in the presence of 4-hydroxytamoxifen at high concentrations			
ERRγ3: novel ERRγ isoform, nuclear receptor protein of 396 amino acids (SEQ ID NO: 2) lacking part of the DNA binding domain (protein, listed as Homo sapiens) MSNKDRHIDSSCSSFIKTEPSSPASLTDSVNHHSPGGSSDASGSYSSTMNGHQNGLDSPPLYPSAPILGGSGPVRKLYDDCSSTIVEDPQTKCEYMLNSMPKRLCLVCGDIASGYHYGVASCEACKAFFKRTIQGVRLDRVRGGRQKYKRRIDAENSPYLNPQLAQPAKKPYNKIVSHLLVAEPEKIYAMPDPTVPDSDIKALTTLCDLADRELVVIIGWAKHIPGFSTLSLADQMSLLQSAWMEILILGVVYRSLSFEDELVYADDYIMDEDQSKLAGLLDLNNAILQLVKKYKSMKLEKEEFVTLKAIALANSDSMHIEDVEAVQKLQDVLHEALQDYEAGQHMEDPRRAGKMLMTLPLLRQTSTKAVQHFYNIKLEGKVPMHKLFLEMLEAKV			13-74%	64%	18%
